Measured values taken from PMC6490927.

What was measured:
[1] = molecular target: C30-His6 (short form of SafA made by internal translation of the safA mRNA) (Bacillus subtilis); test: SEC; purified C30-His6 applied to a size exclusion column at 3.5 mg/ml; eluted as a main single sharp peak; mass by elution position
[2] = molecular target: C30-His6 (short form of SafA made by internal translation of the safA mRNA) (Bacillus subtilis); test: SEC-SAXS; SEC peak fractions of C30; synchrotron SEC-SAXS at BM29 ESRF with in-line HPLC; in the absence of Tgl
[3] = molecular target: C30-His6 (short form of SafA made by internal translation of the safA mRNA) (Bacillus subtilis); test: SDS-PAGE of the purified protein (species resistant to denaturation); purified C30 without Tgl or at time 0 of the cross-linking assays; 37°C, Tris-HCl 0.1 M, pH 8.0; 10% SDS-PAGE, Coomassie

stoichiometry N [1]: 6
stoichiometry N [2]: 6
stoichiometry N [3]: 2
Substance: C30-His6 (short form of SafA made by internal translation of the safA mRNA) (natural protein)
